Experimental findings from patent US20120219562A1 (AbbVie / Abbott, published 2012) are described below.

Numbering of substitutions follows the chain as printed. In names and notes the source's numbering stands. Several values for one entry are separate records, joined by “and”; a condition that tells them apart may be missing. Equal values may be shown once.

Experiment [1] has as its target T1, human interleukin 12 (recombinant human IL-12, p70 heterodimer) (human, UniProt P29459 23-219; P29460 23-328).
T1 sequence (looked up) 1: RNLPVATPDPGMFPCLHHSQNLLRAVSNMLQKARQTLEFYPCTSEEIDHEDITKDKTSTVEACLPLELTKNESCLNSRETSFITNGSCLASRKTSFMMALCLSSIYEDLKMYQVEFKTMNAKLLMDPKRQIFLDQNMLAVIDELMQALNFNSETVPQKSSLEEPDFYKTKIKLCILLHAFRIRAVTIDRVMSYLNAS
T1 sequence (looked up) 2: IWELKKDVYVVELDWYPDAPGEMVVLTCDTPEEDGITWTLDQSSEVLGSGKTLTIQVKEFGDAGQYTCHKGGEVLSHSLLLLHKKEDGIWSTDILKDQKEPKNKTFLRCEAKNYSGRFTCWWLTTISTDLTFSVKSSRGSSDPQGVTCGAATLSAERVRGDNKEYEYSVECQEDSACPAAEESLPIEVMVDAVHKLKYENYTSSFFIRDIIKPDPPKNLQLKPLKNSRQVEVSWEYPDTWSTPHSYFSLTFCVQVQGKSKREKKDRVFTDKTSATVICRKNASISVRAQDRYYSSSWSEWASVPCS
In words: cell-based or functional assay.

For experiment [2], the target named is T1, human interleukin 12 (recombinant human …). In words: cell-based or functional assay. The source holds these as a separate data set.
For experiment [3] the target is unchanged. In words: SPR (BIAcore), off-rate from human IL-12.
For experiment [4], the target named is T2, human interleukin 12 (p70 heterodimer of p35 and p40) (human, UniProt P29459 23-219; P29460 23-328).
T2 construct: Recombinant human IL-12; also called hIL-12; IL-12
T2 sequence (looked up) 1: T1 sequence (looked up) 1
T2 sequence (looked up) 2: T1 sequence (looked up) 2
In words: surface plasmon resonance (BIAcore).

The target of experiment [5] is T2, human interleukin 12 (p70 heterodimer …). In words: SPR (BIAcore), off-rate. Background: In SPR one partner is held on a chip, and binding of the other changes the refractive index at the surface.
For experiment [6] the target is unchanged. In words: SPR (BIAcore), off-rate. The source holds these as a separate data set.
The target is the same in experiment [7]. In words: SPR (BIAcore), off-rate. The source holds these as a separate data set.
Experiment [8] shares this target. In words: SPR (BIAcore), off-rate. This is another data set of the same source.
Experiment [9] has the same target. In words: SPR (BIAcore), off-rate. The source holds these as a separate data set.
Experiment [10] shares this target. In words: SPR (BIAcore), off-rate. The source holds these as a separate data set.
Experiment [11] shares this target. In words: SPR (BIAcore), off-rate. This is another data set of the same source.
Experiment [12] has as its target T1, human interleukin 12 (recombinant human …). In words: RB assay: inhibition of IL-12 binding to its receptor.

B1: Y61 IgG (antibody, V domains shown)
VH: QVQLVQSGGGVVQPGRSLRLSCAASGFTFSSYGMHWVRQAPGKGLEWVAFIRYDGSNKYYADSVKGRFTISRDNSKNTLYLQMKSLRAEDTAVYYCKTHGSHDNWGQGTMVTVSS
VL: SYVLTQPPSVSGTPGQRVTISCSGGRSNIGSNTVKWYQQLPGTAPKLLIYGNDQRPSGVPDRFSGSKSGTSASLAITGVQAEDEADYYCQSYDRGTHPALLFGTGTKVTVLG
notes: IgG
With B1, the “PHA assay IC50” value in experiment [1] is 0.13 nM. In addition, in [2], the “PHA assay IC50 (M) p70:p40 1:0” value came out at 1.8e-10 M and the “PHA assay IC50 (M) p70:p40 1:50” value was 1.8e-10 M. In [3], the koff – broadly, the rate constant with which the complex falls apart – worked out at 0.00015 s⁻¹.

B2: Y61 human anti-hIL-12 antibody (antibody, V domains shown)
VH: B1 VH
VL: B1 VL
For B2, the koff in [4] is roughly 0.0002 s⁻¹; in experiment [5], 0.000168 s⁻¹ and 0.000337 s⁻¹ and 0.000178 s⁻¹; in experiment [6] it was 0.000204 s⁻¹ and 0.000206 s⁻¹ and 0.000151 s⁻¹ and 0.000178 s⁻¹; in experiment [7], 0.00031 s⁻¹ and 0.000385 s⁻¹; in experiment [8], 0.000397 s⁻¹ and 0.000375 s⁻¹ and 0.000255 s⁻¹ and 0.000143 s⁻¹; in experiment [9] it was 0.000403 s⁻¹. In addition, the koff in experiment [10] was 0.000211 s⁻¹ and 0.000229 s⁻¹ and 0.000241 s⁻¹; in [11], 0.000215 s⁻¹ and 0.000297 s⁻¹.

B3: Y61-L94Y IgG (antibody, V domains shown)
VH: B1 VH
VL: QSVLTQPPSVSGAPGQRVTISCSGSRSNIGSNTVKWYQQLPGTAPKLLIYGNDQRPSGVPDRFSGSKSGTSASLAITGLQAEDEADYYCQSYDRYTHPALLFGTGTKVTVL
With B3, in experiment [1], the “IFN gamma IC50” value was found to be 0.04 nM and the “PHA assay IC50” value was 0.05 nM. Moreover, the koff in [3] came out at 0.000127 s⁻¹. Further, the concentration for half-maximal inhibition (IC50) (commonly the point on the concentration scale where inhibition reaches its midpoint) in experiment [12] came out at 0.06 nM.

B4: 136-15 (antibody, V domains shown)
VH: B1 VH
VL: B1 VL with G25S, S91T, R94K, T96F, H97T, P98G, A99S, L100S, L101V
Take B4: the “PHA assay IC50 (M) p70:p40 1:0” value in experiment [2] was determined as 2e-09 M.
